# Columns and labels:
# HLA-A*03:01 [1] = assay: IEDB peptide-MHC binding, purified MHC/competitive/fluorescence; ≥ and ≤ were set here for values at or beyond the usual limits of such assays
# HLA-A*11:01 [2] = assay: as above
# HLA-A*02:01 [3] = assay: IEDB peptide-MHC binding, purified MHC/competitive/radioactivity; filed as Kd, often an IC50 or EC50 that approximates it; ≥ and ≤ were set here for values at or beyond the usual limits of such assays
# HLA-A*02:03 = assay: as above
# HLA-A*02:06 = assay: as above
# HLA-A*02:17 = assay: as above
# HLA-C*14:02 = assay: IEDB peptide-MHC binding, purified MHC/direct/fluorescence; filed as Kd, often an IC50 or EC50 that approximates it; ≥ and ≤ were set here for values at or beyond the usual limits of such assays
# HLA-B*08:01 [4] = assay: IEDB peptide-MHC binding, purified MHC/competitive/radioactivity; filed as Kd, often an IC50 or EC50 that approximates it; ≥ and ≤ were set here for values at or beyond the usual limits of such assays; conditions: source organism: Dengue virus 2 Jamaica/1409/1983
# HLA-A*68:02 = assay: as above; conditions: source organism: Dengue virus 2 Peru/IQT2913/1996
# HLA-A*02:01 [5] = assay: IEDB peptide-MHC binding, purified MHC/competitive/fluorescence; filed as Kd, often an IC50 or EC50 that approximates it; ≥ and ≤ were set here for values at or beyond the usual limits of such assays; conditions: source organism: Cowpox virus
# HLA-A*02:12 = assay: as above; conditions: source organism: Cowpox virus
# HLA-A*01:01 = assay: IEDB peptide-MHC binding, purified MHC/direct/fluorescence; filed as Kd, often an IC50 or EC50 that approximates it; ≥ and ≤ were set here for values at or beyond the usual limits of such assays; conditions: source organism: Giardia lamblia ATCC 50803
# HLA-A*02:01 [6] = assay: as above; conditions: source organism: Giardia lamblia ATCC 50803
# HLA-A*03:01 [7] = assay: as above; conditions: source organism: Giardia lamblia ATCC 50803
# HLA-A*11:01 [8] = assay: as above; conditions: source organism: Giardia lamblia ATCC 50803
# HLA-A*26:01 = assay: as above; conditions: source organism: Giardia lamblia ATCC 50803
# HLA-A*31:01 = assay: as above; conditions: source organism: Giardia lamblia ATCC 50803
# HLA-A*69:01 = assay: as above; conditions: source organism: Giardia lamblia ATCC 50803
# HLA-B*07:02 [9] = assay: as above; conditions: source organism: Giardia lamblia ATCC 50803
# HLA-B*08:01 [10] = assay: as above; conditions: source organism: Giardia lamblia ATCC 50803
# HLA-B*15:01 = assay: as above; conditions: source organism: Giardia lamblia ATCC 50803
# HLA-B*35:01 = assay: as above; conditions: source organism: Giardia lamblia ATCC 50803
# HLA-B*44:02 = assay: as above; conditions: source organism: Giardia lamblia ATCC 50803
# HLA-A*24:03 = assay: as above; conditions: source organism: Vibrio cholerae
# HLA-C*15:02 = assay: as above; conditions: source organism: Vibrio cholerae 2740-80
# HLA-A*02:01 [11] = assay: IEDB peptide-MHC binding, purified MHC/competitive/fluorescence; ≥ and ≤ were set here for values at or beyond the usual limits of such assays; conditions: source organism: Zaire ebolavirus
# HLA-B*07:02 [12] = assay: as above
# HLA-A*24:02 = assay: as above
# [13] = source organism: Dengue virus 1 Singapore/S275/1990
# [14] = source organism: Dengue virus 1 Brazil/97-11/1997
# [15] = source organism: Dengue virus 3 China/80-2/1980
# [16] = source organism: Dengue virus 2 Jamaica/1409/1983
# [17] = source organism: Dengue virus 2 Thailand/NGS-C/1944
# [18] = source organism: Dengue virus 2 Peru/IQT2913/1996
# [19] = source organism: Zaire ebolavirus
# [20] = source organism: Sudan ebolavirus
sequence,measurement,setting,value
KIGDFGLATVK,IC50,HLA-A*03:01 [1]; source organism: Homo sapiens,415 nM
same,IC50,HLA-A*11:01 [2]; source organism: Homo sapiens,32 nM
KMLMTGTLAV,Kd,HLA-A*02:01 [3]; [13],6.46 nM
same,Kd,HLA-A*02:03; [14],10 nM
same,Kd,HLA-A*02:06; [14],47.4 nM
same,Kd,HLA-A*02:17; [13],444 nM
KMNAKAATL,Kd,HLA-C*14:02; source organism: Mycobacterium tuberculosis variant bovis BCG str. Pasteur 1173P2,146 nM
LLTGGAMLFL,Kd,HLA-A*02:01 [3]; [15],47.4 nM
same,Kd,HLA-A*02:17; [15],347 nM
LLVISGVFPV,Kd,HLA-A*02:01 [3]; [16],0.279 nM
same,Kd,HLA-A*02:03; [16],17 nM
same,Kd,HLA-A*02:06; [16],0.72 nM
same,Kd,HLA-A*02:17; [16],2.75 nM
LMGLGKGWPL,Kd,HLA-A*02:01 [3]; [16],162 nM
same,Kd,HLA-A*02:17; [16],917 nM
same,Kd,HLA-B*08:01 [4],304 nM
LVISGLFPV,Kd,HLA-A*02:01 [3]; [17],2.93 nM
same,Kd,HLA-A*02:03; [18],3.62 nM
same,Kd,HLA-A*02:06; [18],0.36 nM
same,Kd,HLA-A*02:17; [17],2.17 nM
same,Kd,HLA-A*68:02,1.23 nM
NMNNDSYYF,Kd,HLA-A*02:01 [5],11.3 nM
same,Kd,HLA-A*02:12,76.5 nM
NQVCIDILR,IC50,HLA-A*11:01 [2]; source organism: Vaccinia virus,≥ 205000 nM
QHTRRVSVL,Kd,HLA-A*01:01,≥ 20000 nM
same,Kd,HLA-A*02:01 [6],10100 nM
same,Kd,HLA-A*03:01 [7],≥ 20000 nM
same,Kd,HLA-A*11:01 [8],≥ 20000 nM
same,Kd,HLA-A*26:01,5180 nM
same,Kd,HLA-A*31:01,≥ 10000 nM
same,Kd,HLA-A*69:01,≥ 20000 nM
same,Kd,HLA-B*07:02 [9],≥ 20000 nM
same,Kd,HLA-B*08:01 [10],534 nM
same,Kd,HLA-B*15:01,≥ 20000 nM
same,Kd,HLA-B*35:01,1300 nM
same,Kd,HLA-B*44:02,≥ 20000 nM
RFNNLTVYF,Kd,HLA-A*24:03,3.3 nM
same,Kd,HLA-C*14:02; source organism: Vibrio cholerae 2740-80,2860 nM
same,Kd,HLA-C*15:02,≥ 20000 nM
RPIQNVPGP,IC50,HLA-A*02:01 [11],≥ 465000 nM
same,IC50,HLA-B*07:02 [12]; [19],28700 nM
RPQKIWMAP,IC50,HLA-B*07:02 [12]; [19],7100 nM
SNRTPTVAP,IC50,HLA-A*02:01 [11],≥ 189000 nM
same,IC50,HLA-A*24:02; [19],≥ 94200 nM
same,IC50,HLA-B*07:02 [12]; [19],41500 nM
SPGMVPLHI,IC50,HLA-A*24:02; [20],24400 nM
same,IC50,HLA-B*07:02 [12]; [20],6660 nM
VKNEVNSFK,IC50,HLA-A*03:01 [1]; [19],47100 nM
same,IC50,HLA-A*11:01 [2]; [19],39100 nM
VLLLTIGLSL,Kd,HLA-A*02:01 [3]; [13],5.24 nM
same,Kd,HLA-A*02:17; [13],3910 nM
